Molecular target: T1, IscR-His (Caulobacter crescentus NA1000) (UniProt A0A0H3C7T4)
T1 sequence: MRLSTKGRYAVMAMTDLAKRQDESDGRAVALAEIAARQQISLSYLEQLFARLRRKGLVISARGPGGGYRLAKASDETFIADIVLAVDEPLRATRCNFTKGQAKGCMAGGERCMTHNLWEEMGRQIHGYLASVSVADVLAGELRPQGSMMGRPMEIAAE
Experiment: EMSA
Conditions: 10 mM HEPES, 40 mM KCl, 1 mM MgCl2, 1 mM MnCl2, 5% glycerol, 0.1 mg/ml salmon sperm DNA, 500 ng probe, pH not stated, 30 min room temperature

AAACCACTCCCGGAATCACGCGCAGATCGGAAGGGACACACAGGTTCCGCCTCCGCGCCGCGTACCACCCTGAACGACTGGAGGGGGGCGACCGGCCGCTTCTTAGCGCCGCCGTCGACCAACGTCCATGTCACGTGCGGGGTCTTGGCGTGTTGAGAGCTGTTCTCATTAAGGATCTGGCGATTTCGCGCGGTGAGCGAACGCTGTTTTC (double strand) [acn regulatory region]
binding: binds
